83 variants from the RNAGym collection of RNA variant scans (doi:10.1073/pnas.2313332121) can be followed below.

The chains are these.
B1: TPR 5TU (parent)
chain: GGAUCUUCUCGAUCUAACAAAAAAGACAAAUCUGCCACAAAGCUUGAGAGCAUCUUCGGAUGCAGAGGCGGCAGCCUUCGGUGGCGCGAUAGCGCCAACGUUCUCAACUAUGACACGCAAAACGCGUGCUCCGUUGAAUGGAGUUUAUCAUG

Variants at the floor of the assay were thinned out. Bounds are passed on as bounds.

Variants of B1 are the subject of the data set. As to the kind of experiment: polymerase ribozyme fitness, log enrichment relative to wild type (log ratio); higher = more active; in vitro selection for triplet polymerase activity. Summed up: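 Libraries of mutants in each subunit of a heterodimeric triplet polymerase ribozyme were generated by PCR and transcribed. In triplicate, each went through one in vitro selection round: annealing with biotinylated primer, partner subunit and triplets; frozen incubation at −7 °C; gel excision of extended constructs; streptavidin-bead capture; RT-PCR. Fitness, taken from Illumina sequencing of input and output libraries, is the logarithm of a genotype's enrichment over wild-type enrichment, averaged across replicates with inverse-variance weights. The logarithm is base 2, and genotypes needed ≥10 input reads and ≥1 read per output to be kept.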
For C51U C118U, the “polymerase ribozyme fitness (log ratio)” value is -0.957. C51G G92C: the “polymerase ribozyme fitness (log ratio)” value was -2.71. For the variant C51U G58C A73G G81A C116U, the “polymerase ribozyme fitness (log ratio)” value is -0.931. For A52C U145G the value was -1.17; for U53A G94U, -3.17. For G50U G58A G84U C105U G133A G141C the value was at most -4.2; for U53A C96U C118A, -1.21. C51A C76G G88C C103A C125A G140A: the “polymerase ribozyme fitness (log ratio)” value is at most -4.2. U53A G70C C149G: the “polymerase ribozyme fitness (log ratio)” value was at most -4.2. For U53A G84A G94A C103U C114U G126C the value was at most -4.2; for U53A A110G, -3.7; for C51U G70A A91C A97C U144C, at most -4.2.

Regarding A52U U53A U101G, the “polymerase ribozyme fitness (log ratio)” value was -2.73. Take U53A G59U: the “polymerase ribozyme fitness (log ratio)” value stood at 0.71.

Take U53A G59A: the “polymerase ribozyme fitness (log ratio)” value was -0.147. For U53A G84U C103G U148G the value was at most -4.2.

Consider C51A U55A C95A A110U G128C, for which the “polymerase ribozyme fitness (log ratio)” value is at most -4.2. Regarding C51U A142C, the “polymerase ribozyme fitness (log ratio)” value is -0.909.

On to C51G A52U C63A A138U, for which the “polymerase ribozyme fitness (log ratio)” value is at most -4.2. For U53A G92U the value was -1.74. The result for U53A G92C reads -3.01; that for A52C C95A C132G G141A A150G, at most -4.2; that for C51U G59A C95A C125G, -1.53. As for C51A U101C C123A, the “polymerase ribozyme fitness (log ratio)” value is -2.09. C51A C54U C85U: the “polymerase ribozyme fitness (log ratio)” value is -1.93. The result for C51U U127A A142G reads -4.07; that for A52U U55G C76U, -4.08; that for A52G C54U C93A, -1.98.

As for U53A C96A C125U, the “polymerase ribozyme fitness (log ratio)” value was -1.41. Take A52G C57G C76U G92U U148A: the “polymerase ribozyme fitness (log ratio)” value is -4.19. For A52G C105A, the “polymerase ribozyme fitness (log ratio)” value was -0.578. The result for A52G G59C C99U reads -1.42. The result for G50U G62U U101C reads -1; that for A52G C69U C93U, -2.89. For A52G C72U the value was -0.83; for A52C C96U, -1.77; for C51U C69A C96U G141C, -3.18. As for A52U G58U U90C C118U G126C A138C, the “polymerase ribozyme fitness (log ratio)” value is at most -4.2.

Take C51U A52U G94U: the “polymerase ribozyme fitness (log ratio)” value is -2.8. As to A52G C69G G71C, the “polymerase ribozyme fitness (log ratio)” value is -2.11. As to A52G C54U G58C G86A A89U, the “polymerase ribozyme fitness (log ratio)” value was -3.29.

For U53A U55A A121U, the “polymerase ribozyme fitness (log ratio)” value was -2.74. The result for A52G U77G U82C A91G A106U G140A U144A G152U reads at most -4.2. For C51G G88A A91G A115U U144G U151C the value was at most -4.2. For the variant A52C U61A G88U C96U G136U, the “polymerase ribozyme fitness (log ratio)” value is at most -4.2. Take A52U C76U A150U: the “polymerase ribozyme fitness (log ratio)” value was -1.19.

For U53A A122G, the “polymerase ribozyme fitness (log ratio)” value is -0.748. For A52G C95A C99A the value was -1.54.

With A52G U53A G83U, the “polymerase ribozyme fitness (log ratio)” value is -2.28. For C51U U55C A106G U151G the value was at most -4.2.

Regarding A52G G58A A66U U77G G94A C99G A107G, the “polymerase ribozyme fitness (log ratio)” value is at most -4.2. As to A52C U148G, the “polymerase ribozyme fitness (log ratio)” value was at most -4.2.

Turning to U53A G68U G88U U90C, the “polymerase ribozyme fitness (log ratio)” value was at most -4.2. The result for U53A G83U reads -0.881; that for G50U C57U, 1.

Turning to G50U C54U G81C C85A G117A, the “polymerase ribozyme fitness (log ratio)” value was -0.79. Turning to A52C G84U C125U, the “polymerase ribozyme fitness (log ratio)” value is -2.64. Turning to A52G G117A, the “polymerase ribozyme fitness (log ratio)” value was -0.121. Consider A52G G117U, for which the “polymerase ribozyme fitness (log ratio)” value is 0.374. With A52U C85U C96A C116U, the “polymerase ribozyme fitness (log ratio)” value was -2.69. As to U53A C79G C108U G136A U144G, the “polymerase ribozyme fitness (log ratio)” value was at most -4.2. As to G50U G58A A66U C79U C87U G88C A121C, the “polymerase ribozyme fitness (log ratio)” value is at most -4.2.

Regarding U53A C87U A150U, the “polymerase ribozyme fitness (log ratio)” value was -0.451.

Take A52G U55A: the “polymerase ribozyme fitness (log ratio)” value is -0.0825. Turning to A52G U55C, the “polymerase ribozyme fitness (log ratio)” value was -0.523. For A52U U55A C87G the value was at most -4.2; for U53A C57G C75G G83C U102A A121U U144A U145C, at most -4.2. A52U C118U: the “polymerase ribozyme fitness (log ratio)” value was -1.14. For the variant A52G A60G U77G A91U G133U, the “polymerase ribozyme fitness (log ratio)” value was at most -4.2.

For the variant A52C A66C C69A C87G G133U, the “polymerase ribozyme fitness (log ratio)” value is at most -4.2.

For the variant A52C A119U G141C, the “polymerase ribozyme fitness (log ratio)” value was -2.95. For A52C G88A A113U A121C the value was at most -4.2; for A52C A91C, at most -4.2; for G50U G74A C93U A106C U148C, at most -4.2.

With A52U U55G C87A A119U, the “polymerase ribozyme fitness (log ratio)” value was at most -4.2. As to U53A C95U U104G A115U C123U, the “polymerase ribozyme fitness (log ratio)” value is -3.81. The result for A52U C57G G58A C95U C123U G126U A138U reads at most -4.2; that for A52G C85G G141A, -1.37; that for U53A G59C C87U C96A A113G C125U, at most -4.2. The result for U53A A91C U101C reads at most -4.2; that for C51U A60U, -0.791.

On to U53A A89C, for which the “polymerase ribozyme fitness (log ratio)” value is -0.605.

A52G U77G G88C: the “polymerase ribozyme fitness (log ratio)” value was at most -4.2.
